Experiments:
[1] = system: AddAB helicase-nuclease (nuclease-deficient AddA D1172A, AddB D961A) AddA D1172A, AddB D961A (Bacillus subtilis); conditions: unwinding monitored with IDCC-SSB at low ionic strength (20 mM NaCl), 2 mM MgCl2, ATP, 37 C; weaker at 200 mM NaCl
[2] = target: 6-IATR-E. coli SSB (W88C) W88C (mature protein numbering as printed) (Escherichia coli) (UniProt P0AGE0); conditions: data not shown

Substance: EcoRI-linearized pBR322
- activity (bp s-1 per binding site) [1]: 1000

Substance: poly-dT
- activity (fold fluorescence (+/- DNA)) [2]: 4.5
